According to patent publication US20250223353A1 (BIOTHEUS, published 2025):

What was measured:
Experiment in all cases: BLI (ForteBio), PVRIG-Fc on AHQ sensor, 100 nM Fab in solution, monovalent, 1:1 model
[1] = target: T1, mouse PVRIG-Fc protein (mouse)
T1 construct: not shown: Fc part
T1 chain: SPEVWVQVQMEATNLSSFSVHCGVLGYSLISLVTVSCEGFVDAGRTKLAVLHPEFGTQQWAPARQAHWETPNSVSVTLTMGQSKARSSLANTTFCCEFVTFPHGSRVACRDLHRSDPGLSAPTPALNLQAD
Experimental: (§1) Biofilm layer optical interference technology (ForteBio) was used to determine the binding and dissociation rate constant (KD) values of the antibodies and their variants or Fab fragments obtained in Example 1 to human, cynomolgus monkey and mouse PVRIG. ForteBio affinity measurement was performed according to existing methods (Este, P et al., High throughput solution-based measurement of antibody-antigen affinity and epitope binning. Mabs, 2013.5 (2): p270-8).
(§2) The antigen-loaded sensor was incubated in 100 nM Fab solution to the plateau phase, and then the sensor was transferred to an analysis buffer and incubated for at least 2 minutes for measuring dissociation rate. The kinetic analysis was performed using a 1:1 binding model.

[2] = target: T2, cynomolgus monkey PVRIG-Fc protein (cynomolgus monkey, UniProt Q6DKI7 41-171 (human entry), limits assumed)
T2 construct: also called cynomolgus PVRIG-Fc protein; not shown: Fc part
T2 chain: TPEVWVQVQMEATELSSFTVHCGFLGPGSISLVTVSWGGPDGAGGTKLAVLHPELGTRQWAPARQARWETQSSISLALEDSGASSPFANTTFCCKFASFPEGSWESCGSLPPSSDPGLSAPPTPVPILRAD
Experimental: as §1, §2

[3] = target: T3, human PVRIG-Fc protein (human, UniProt Q6DKI7 41-171)
T3 construct: also called PVRIG-Fc antigen (human); not shown: Fc part
T3 sequence: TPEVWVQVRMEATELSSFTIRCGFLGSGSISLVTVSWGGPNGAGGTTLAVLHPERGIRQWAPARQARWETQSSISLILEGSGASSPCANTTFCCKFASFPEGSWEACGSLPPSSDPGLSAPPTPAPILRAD
Experimental: as §1, §2

Kd [1]: 114 nM
Kd [2]: 0.128 nM
Kd [3]: 0.061 nM
B1: ADI-56127 Fab fragment (Fab, V domains shown)
VH: QVQLVQSGAEVKKPGSSVKVSCKASGGTESVDAISWVRQAPGQGLEWMGDIIPFFDTDYAQKFQGRVTITADESTSTAYMELSSLRSEDTAVYYCAREGGTSWTHFFDLWGRGTLVTVSS
VL: not shown
notes: Fab made by papain digestion of the yeast full-length IgG, purified with Kappa Select
